Laboratory results from doi:10.1101/2020.05.01.070730 (bioRxiv, 2020).

Target: T1, MutS R842E (Pseudomonas aeruginosa, UniProt Q9HY08 1-855, R842E)
T1 sequence: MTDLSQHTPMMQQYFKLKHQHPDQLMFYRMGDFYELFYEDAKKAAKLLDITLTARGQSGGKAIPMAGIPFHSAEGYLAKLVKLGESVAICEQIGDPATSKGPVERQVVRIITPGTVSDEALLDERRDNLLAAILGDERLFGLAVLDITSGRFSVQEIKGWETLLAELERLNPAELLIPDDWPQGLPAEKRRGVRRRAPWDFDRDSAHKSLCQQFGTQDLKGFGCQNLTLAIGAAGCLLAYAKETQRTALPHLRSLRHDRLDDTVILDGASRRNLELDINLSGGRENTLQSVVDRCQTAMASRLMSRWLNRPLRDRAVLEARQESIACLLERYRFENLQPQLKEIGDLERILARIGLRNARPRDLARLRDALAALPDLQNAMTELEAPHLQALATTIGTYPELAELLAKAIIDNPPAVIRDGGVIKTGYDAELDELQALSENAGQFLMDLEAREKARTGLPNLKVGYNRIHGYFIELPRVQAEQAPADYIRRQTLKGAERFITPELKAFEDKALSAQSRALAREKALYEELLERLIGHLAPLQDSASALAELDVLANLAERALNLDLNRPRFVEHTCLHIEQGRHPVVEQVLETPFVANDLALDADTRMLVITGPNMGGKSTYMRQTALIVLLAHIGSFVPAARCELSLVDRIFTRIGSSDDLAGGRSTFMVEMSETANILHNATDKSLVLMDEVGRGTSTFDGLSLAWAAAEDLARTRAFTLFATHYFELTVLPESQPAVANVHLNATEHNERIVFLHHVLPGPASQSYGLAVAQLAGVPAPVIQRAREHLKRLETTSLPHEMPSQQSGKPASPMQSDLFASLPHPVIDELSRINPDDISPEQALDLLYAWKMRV
Assay: native PAGE shift

B1: GT-pDNA (GT 8 nt from 3'-OH) (dsDNA)
DNA 1: ATGTGAATCAGTATGGTTGCTATCTGC
DNA 2: ATTTCCTTCAGCAGATAGTAACCATACTGATTCACAT
binding result: binds
